Columns and labels:
apoE4 (human) [1] = target: apoE4 (human) (UniProt P02649); experiment: competitive inhibition ELISA: lipidated apoE4 100 nM preincubated with Aβ12-28P (0-400 nM), added to Aβ1-40 coated wells; one-site competition fit
apoE3 (human) = apoE3 (human) (UniProt P02649); experiment: cell-based or functional assay
apoE4 (human) [2] = target: apoE4 (human) (UniProt P02649); experiment: cell-based or functional assay

Chain of apoE4 (human) (P02649 19-317 C130R limits assumed): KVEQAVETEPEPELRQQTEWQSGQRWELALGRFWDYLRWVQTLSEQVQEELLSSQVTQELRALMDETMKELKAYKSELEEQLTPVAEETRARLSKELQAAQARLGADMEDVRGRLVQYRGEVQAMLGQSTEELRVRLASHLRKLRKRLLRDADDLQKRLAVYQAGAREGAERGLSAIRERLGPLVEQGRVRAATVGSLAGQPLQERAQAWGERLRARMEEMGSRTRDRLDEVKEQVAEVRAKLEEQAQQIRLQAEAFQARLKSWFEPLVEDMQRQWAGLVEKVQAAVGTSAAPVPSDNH
Chain of apoE3 (human) (P02649 19-317 limits assumed): as the sequence (P02649 19-317 C130R limits assumed) above, with R112C counted along it

IC50 (apoE4 (human) [1]): 36.7 nM
relative reduction in Thioflavin-T fluorescence of Aβ1-42 with apoE3 after 24 h of incubation (apoE3 (human)): 14.5%
relative reduction in Thioflavin-T fluorescence of Aβ1-42 with apoE3 by day six (apoE3 (human)): 48.3%
relative reduction in Thioflavin-T fluorescence of Aβ1-42 with apoE4 after 24 h of incubation (apoE4 (human) [2]): 25.3%
relative reduction in Thioflavin-T fluorescence of Aβ1-42 with apoE4 by day six (apoE4 (human) [2]): 52.3%
Substance: Aβ12-28P (peptide)

From patent publication US20040214774A1
